Results: patent US20200199241A1 (Chugai, published 2020)

target: T1, human FcRn (soluble human FcRn complexed with β2-microglobulin) (human, UniProt P61769 21-119, limits assumed); assay: SPR, pH 7.0;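 also: antibodies captured on a Protein L sensor chip with human FcRn injected as analyte, KD calculated from fitted association and dissociation rate constants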
T1 construct: also called hFcRn
T1 sequence (chain, as listed by the source limits assumed, chain 1 of 2): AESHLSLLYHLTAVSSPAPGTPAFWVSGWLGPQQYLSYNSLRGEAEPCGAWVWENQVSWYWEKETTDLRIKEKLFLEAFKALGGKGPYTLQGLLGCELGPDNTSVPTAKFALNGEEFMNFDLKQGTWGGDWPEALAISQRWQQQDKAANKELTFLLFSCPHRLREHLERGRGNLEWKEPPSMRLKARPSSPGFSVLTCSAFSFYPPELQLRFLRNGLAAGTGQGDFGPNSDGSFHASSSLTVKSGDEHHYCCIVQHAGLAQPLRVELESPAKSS
T1 sequence (P61769 21-119 limits assumed, chain 2 of 2): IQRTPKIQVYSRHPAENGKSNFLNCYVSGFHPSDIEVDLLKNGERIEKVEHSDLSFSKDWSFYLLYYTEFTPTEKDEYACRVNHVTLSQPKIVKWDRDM

Binder | Kd
IgG1-F439 (antibody, EU numbering; copies: 2 + 2) heavy: QVQLQESGPGLVKPSETLSLTCAVSGHSISHDHAWSWVRQPPGEGLEWIGFISYSGITNYNPSLQGRVTISRDNSKNTLYLQMNSLRAEDTAVYYCARSLARTTAMDYWGEGTLVTVSSASTKGPSVFPLAPSSKSTSGGTAALGCLVKDYFPEPVTVSWNSGALTSGVHTFPAVLQSSGLYSLSSVVTVPSSSLGTQTYICNVNHKPSNTKVDKKVEPKSCDKTHTCPPCPAPELLGGPSVFLFPPKPKDTLMISRTAEVTCVVVDVSHEDPEVKFNWYVDGVEVHNAKTKPREEQYNSTYRVVSVLQVLHQDWLNGKEYKCKVSNKALPAPIEKTISKAKGQPREPQVYTLPPSRDELTKNQVSLTCLVKGFYPSDIAVEWESNGQPENNYKTTPPVLDSDGSFFLYSKLTVDKSRWQQGNVFSCSVFHEALHYHYTQKSLSLSP light: not shown | 40 nM
IgG1-F441 (antibody, EU numbering; copies: 2 + 2) heavy: QVQLQESGPGLVKPSETLSLTCAVSGHSISHDHAWSWVRQPPGEGLEWIGFISYSGITNYNPSLQGRVTISRDNSKNTLYLQMNSLRAEDTAVYYCARSLARTTAMDYWGEGTLVTVSSASTKGPSVFPLAPSSKSTSGGTAALGCLVKDYFPEPVTVSWNSGALTSGVHTFPAVLQSSGLYSLSSVVTVPSSSLGTQTYICNVNHKPSNTKVDKKVEPKSCDKTHTCPPCPAPELLGGPSVFLFPPKPKDTLMISRTAEVTCVVVDVSHEDPEVKFNWYVDGVEVHNAKTKPREEQYNSTYRVVSVLTVLHADWLNGKEYKCKVSNKALPAPIEKTISKAKGQPREPQVYTLPPSRDELTKNQVSLTCLVKGFYPSDIAVEWESNGQPENNYKTTPPVLDSDGSFFLYSKLTVDKSRWQQGNVFSCSVLHEALHYHYTQKSLSLSP light: not shown | 180 nM
IgG1-F453 (antibody, EU numbering; copies: 2 + 2) heavy: QVQLQESGPGLVKPSETLSLTCAVSGHSISHDHAWSWVRQPPGEGLEWIGFISYSGITNYNPSLQGRVTISRDNSKNTLYLQMNSLRAEDTAVYYCARSLARTTAMDYWGEGTLVTVSSASTKGPSVFPLAPSSKSTSGGTAALGCLVKDYFPEPVTVSWNSGALTSGVHTFPAVLQSSGLYSLSSVVTVPSSSLGTQTYICNVNHKPSNTKVDKKVEPKSCDKTHTCPPCPAPELLGGPSVFLFPPKPKDTLMISRTNEVTCVVVDVSHEDPEVKFNWYVDGVEVHNAKTKPREEQYNSTYRVVSVLAVLHQDWLNGKEYKCKVSNKALPAPIEKTISKAKGQPREPQVYTLPPSRDELTKNQVSLTCLVKGFYPSDIAVEWESNGQPENNYKTTPPVLDSDGSFFLYSKLTVDKSRWQQGNVFSCSVLHEALHYHYTQKSLSLSP light: not shown | 78 nM
IgG1-F442 (antibody, EU numbering; copies: 2 + 2) heavy: QVQLQESGPGLVKPSETLSLTCAVSGHSISHDHAWSWVRQPPGEGLEWIGFISYSGITNYNPSLQGRVTISRDNSKNTLYLQMNSLRAEDTAVYYCARSLARTTAMDYWGEGTLVTVSSASTKGPSVFPLAPSSKSTSGGTAALGCLVKDYFPEPVTVSWNSGALTSGVHTFPAVLQSSGLYSLSSVVTVPSSSLGTQTYICNVNHKPSNTKVDKKVEPKSCDKTHTCPPCPAPELLGGPSVFLFPPKPKDTLMISRTAEVTCVVVDVSHEDPEVKFNWYVDGVEVHNAKTKPREEQYNSTYRVVSVLTVLHHDWLNGKEYKCKVSNKALPAPIEKTISKAKGQPREPQVYTLPPSRDELTKNQVSLTCLVKGFYPSDIAVEWESNGQPENNYKTTPPVLDSDGSFFLYSKLTVDKSRWQQGNVFSCSVLHEALHYHYTQKSLSLSP light: not shown | 200 nM
IgG1-F451 (antibody, EU numbering; copies: 2 + 2) heavy: QVQLQESGPGLVKPSETLSLTCAVSGHSISHDHAWSWVRQPPGEGLEWIGFISYSGITNYNPSLQGRVTISRDNSKNTLYLQMNSLRAEDTAVYYCARSLARTTAMDYWGEGTLVTVSSASTKGPSVFPLAPSSKSTSGGTAALGCLVKDYFPEPVTVSWNSGALTSGVHTFPAVLQSSGLYSLSSVVTVPSSSLGTQTYICNVNHKPSNTKVDKKVEPKSCDKTHTCPPCPAPELLGGPSVFLFPPKPKDTLMISRTSEVTCVVVDVSHEDPEVKFNWYVDGVEVHNAKTKPREEQYNSTYRVVSVLAVLHQDWLNGKEYKCKVSNKALPAPIEKTISKAKGQPREPQVYTLPPSRDELTKNQVSLTCLVKGFYPSDIAVEWESNGQPENNYKTTPPVLDSDGSFFLYSKLTVDKSRWQQGNVFSCSVLHEALHYHYTQKSLSLSP light: not shown | 100 nM
IgG1-F448 (antibody, EU numbering; copies: 2 + 2) heavy: QVQLQESGPGLVKPSETLSLTCAVSGHSISHDHAWSWVRQPPGEGLEWIGFISYSGITNYNPSLQGRVTISRDNSKNTLYLQMNSLRAEDTAVYYCARSLARTTAMDYWGEGTLVTVSSASTKGPSVFPLAPSSKSTSGGTAALGCLVKDYFPEPVTVSWNSGALTSGVHTFPAVLQSSGLYSLSSVVTVPSSSLGTQTYICNVNHKPSNTKVDKKVEPKSCDKTHTCPPCPAPELLGGPSVFLFPPKPKDTLMISRTAEVTCVVVDVSHEDPEVKFNWYVDGVEVHEAKTKPREEQYNSTYRVVSVLAVLHQDWLNGKEYKCKVSNKALPAPIEKTISKAKGQPREPQVYTLPPSRDELTKNQVSLTCLVKGFYPSDIAVEWESNGQPENNYKTTPPVLDSDGSFFLYSKLTVDKSRWQQGNVFSCSVLHEALHYHYTQKSLSLSP light: not shown | 53 nM
IgG1-F440 (antibody, EU numbering; copies: 2 + 2) heavy: QVQLQESGPGLVKPSETLSLTCAVSGHSISHDHAWSWVRQPPGEGLEWIGFISYSGITNYNPSLQGRVTISRDNSKNTLYLQMNSLRAEDTAVYYCARSLARTTAMDYWGEGTLVTVSSASTKGPSVFPLAPSSKSTSGGTAALGCLVKDYFPEPVTVSWNSGALTSGVHTFPAVLQSSGLYSLSSVVTVPSSSLGTQTYICNVNHKPSNTKVDKKVEPKSCDKTHTCPPCPAPELLGGPSVFLFPPKPKDTLMISRTVEVTCVVVDVSHEDPEVKFNWYVDGVEVHEAKTKPREEQYNSTYRVVSVLQVLHADWLNGKEYKCKVSGKALPAPIEKTISKAKGQPREPQVYTLPPSRDELTKNQVSLTCLVKGFYPSDIAVEWESNGQPENNYKTTPPVLDSDGSFFLYSKLTVDKSRWQQGNVFSCSVLHEALHYHYTQKSLSLSP light: not shown | 15 nM
IgG1-F452 (antibody, EU numbering; copies: 2 + 2) heavy: QVQLQESGPGLVKPSETLSLTCAVSGHSISHDHAWSWVRQPPGEGLEWIGFISYSGITNYNPSLQGRVTISRDNSKNTLYLQMNSLRAEDTAVYYCARSLARTTAMDYWGEGTLVTVSSASTKGPSVFPLAPSSKSTSGGTAALGCLVKDYFPEPVTVSWNSGALTSGVHTFPAVLQSSGLYSLSSVVTVPSSSLGTQTYICNVNHKPSNTKVDKKVEPKSCDKTHTCPPCPAPELLGGPSVFLFPPKPKDTLMISRTMEVTCVVVDVSHEDPEVKFNWYVDGVEVHNAKTKPREEQYNSTYRVVSVLAVLHQDWLNGKEYKCKVSNKALPAPIEKTISKAKGQPREPQVYTLPPSRDELTKNQVSLTCLVKGFYPSDIAVEWESNGQPENNYKTTPPVLDSDGSFFLYSKLTVDKSRWQQGNVFSCSVLHEALHYHYTQKSLSLSP light: not shown | 140 nM
IgG1-F446 (antibody, EU numbering; copies: 2 + 2) heavy: QVQLQESGPGLVKPSETLSLTCAVSGHSISHDHAWSWVRQPPGEGLEWIGFISYSGITNYNPSLQGRVTISRDNSKNTLYLQMNSLRAEDTAVYYCARSLARTTAMDYWGEGTLVTVSSASTKGPSVFPLAPSSKSTSGGTAALGCLVKDYFPEPVTVSWNSGALTSGVHTFPAVLQSSGLYSLSSVVTVPSSSLGTQTYICNVNHKPSNTKVDKKVEPKSCDKTHTCPPCPAPELLGGPSVFLFPPKPKDTLMISRTAEVTCVVVDVSHEDPEVKFNWYVDGVEVHNAKTKPREEQYNSTYRVVSVLAVLHHDWLNGKEYKCKVSNKALPAPIEKTISKAKGQPREPQVYTLPPSRDELTKNQVSLTCLVKGFYPSDIAVEWESNGQPENNYKTTPPVLDSDGSFFLYSKLTVDKSRWQQGNVFSCSVLHEALHYHYTQKSLSLSP light: not shown | 110 nM
IgG1-F443 (antibody, EU numbering; copies: 2 + 2) heavy: QVQLQESGPGLVKPSETLSLTCAVSGHSISHDHAWSWVRQPPGEGLEWIGFISYSGITNYNPSLQGRVTISRDNSKNTLYLQMNSLRAEDTAVYYCARSLARTTAMDYWGEGTLVTVSSASTKGPSVFPLAPSSKSTSGGTAALGCLVKDYFPEPVTVSWNSGALTSGVHTFPAVLQSSGLYSLSSVVTVPSSSLGTQTYICNVNHKPSNTKVDKKVEPKSCDKTHTCPPCPAPELLGGPSVFLFPPKPKDTLMISRTAEVTCVVVDVSHEDPEVKFNWYVDGVEVHNAKTKPREEQYNSTYRVVSVLQVLHADWLNGKEYKCKVSNKALPAPIEKTISKAKGQPREPQVYTLPPSRDELTKNQVSLTCLVKGFYPSDIAVEWESNGQPENNYKTTPPVLDSDGSFFLYSKLTVDKSRWQQGNVFSCSVLHEALHYHYTQKSLSLSP light: not shown | 55 nM
IgG1-F449 (antibody, EU numbering; copies: 2 + 2) heavy: QVQLQESGPGLVKPSETLSLTCAVSGHSISHDHAWSWVRQPPGEGLEWIGFISYSGITNYNPSLQGRVTISRDNSKNTLYLQMNSLRAEDTAVYYCARSLARTTAMDYWGEGTLVTVSSASTKGPSVFPLAPSSKSTSGGTAALGCLVKDYFPEPVTVSWNSGALTSGVHTFPAVLQSSGLYSLSSVVTVPSSSLGTQTYICNVNHKPSNTKVDKKVEPKSCDKTHTCPPCPAPELLGGPKVFLFPPKPKDTLYISRTPEVTCVVVDVSHEFPEVKFNWYVDGVEVHNAKTKPREEQYNSTYRVVSVLPVLHQDWLNGKEYKCKVSGKALPAPIEKTISKAKGQPREPQVYTLPPSRDELTKNQVSLTCLVKGFYPSDIAVEWESNGQPENNYKTTPPVLDSDGSFFLYSKLTVDKSRWQQGNVFSCSVYHEALHYHYTQKSLSLSP light: not shown | 570 nM
IgG1-F444 (antibody, EU numbering; copies: 2 + 2) heavy: QVQLQESGPGLVKPSETLSLTCAVSGHSISHDHAWSWVRQPPGEGLEWIGFISYSGITNYNPSLQGRVTISRDNSKNTLYLQMNSLRAEDTAVYYCARSLARTTAMDYWGEGTLVTVSSASTKGPSVFPLAPSSKSTSGGTAALGCLVKDYFPEPVTVSWNSGALTSGVHTFPAVLQSSGLYSLSSVVTVPSSSLGTQTYICNVNHKPSNTKVDKKVEPKSCDKTHTCPPCPAPELLGGPSVFLFPPKPKDTLMISRTAEVTCVVVDVSHEDPEVKFNWYVDGVEVHNAKTKPREEQYNSTYRVVSVLAVLHADWLNGKEYKCKVSNKALPAPIEKTISKAKGQPREPQVYTLPPSRDELTKNQVSLTCLVKGFYPSDIAVEWESNGQPENNYKTTPPVLDSDGSFFLYSKLTVDKSRWQQGNVFSCSVLHEALHYHYTQKSLSLSP light: not shown | 140 nM
IgG1-F447 (antibody, EU numbering; copies: 2 + 2) heavy: QVQLQESGPGLVKPSETLSLTCAVSGHSISHDHAWSWVRQPPGEGLEWIGFISYSGITNYNPSLQGRVTISRDNSKNTLYLQMNSLRAEDTAVYYCARSLARTTAMDYWGEGTLVTVSSASTKGPSVFPLAPSSKSTSGGTAALGCLVKDYFPEPVTVSWNSGALTSGVHTFPAVLQSSGLYSLSSVVTVPSSSLGTQTYICNVNHKPSNTKVDKKVEPKSCDKTHTCPPCPAPELLGGPSVFLFPPKPKDTLMISRTAEVTCVVVDVSHEDPEVKFNWYVDGVEVHEAKTKPREEQYNSTYRVVSVLQVLHQDWLNGKEYKCKVSNKALPAPIEKTISKAKGQPREPQVYTLPPSRDELTKNQVSLTCLVKGFYPSDIAVEWESNGQPENNYKTTPPVLDSDGSFFLYSKLTVDKSRWQQGNVFSCSVLHEALHYHYTQKSLSLSP light: not shown | 14 nM
